{"source": "paper PMC8906541", "about": "“A conserved arginine in NS5 binds genomic 3′ stem–loop RNA for primer-independent initiation of flavivirus RNA replication”", "key": {"[1]": {"biological_target": "T1, NS5 WT (Dengue virus 2, UniProt A9LIC9 2492-3391)", "experiment": "EMSA; Kd stated only as micromolar range; value in figure", "conditions": "protein: recombinant; tags: N-terminal His6-TEV, cleaved; stem-loop"}, "[2]": {"biological_target": "T1, NS5 WT", "experiment": "EMSA; Kd value only in figure; >100-fold excess yeast tRNA does not affect binding", "conditions": "protein: recombinant; tags: N-terminal His6-TEV, cleaved; stem-loop"}}, "data": [{"binder": "5'SLA (structured_RNA) RNA: AGUUGUUAGUCUACGUGGACCGACAAAGACAGAUUCUUUGAGGAAGCUAAGCUUAACGUAGUUCUAACAG", "values": [{"measurement": "binding result", "setting": "[1]", "value": "binds"}]}, {"binder": "3'SL (structured_RNA) RNA: AGAUCCUGCUGUCUCCUCAGCAUCAUUCCAGGCACAGAACGCCAGAAAAUGGAAUGGUGCUGUUGAAUCAACAGGUUCU", "values": [{"measurement": "binding result", "setting": "[2]", "value": "binds"}]}]}
